Data from the supplement of paper PMC11246515.
± gives the standard deviation of the averaged measurements.

Assay: total protein half-life in vivo (active degradation + dilution); higher = more stable protein
[1] = E. coli NCM3722 delta-clpP delta-lon delta-hslV, growth: N-lim chemostat, doubling time 6 h
[2] = E. coli NCM3722 delta-clpP, growth: N-lim chemostat, doubling time 6 h
[3] = E. coli NCM3722 delta-hslV, growth: N-lim chemostat, doubling time 6 h
[4] = E. coli NCM3722 delta-lon, growth: N-lim chemostat, doubling time 6 h
[5] = E. coli NCM3722 delta-smpB, growth: N-lim chemostat, doubling time 6 h
[6] = wild type E. coli NCM3722, growth: C-lim chemostat, doubling time 3 h
[7] = wild type E. coli NCM3722, growth: C-lim chemostat, doubling time 6 h
[8] = wild type E. coli NCM3722, growth: C-lim chemostat, doubling time 12 h
[9] = wild type E. coli NCM3722, growth: N-lim chemostat, doubling time 6 h
[10] = wild type E. coli NCM3722, growth: N-lim chemostat, doubling time 12 h
[11] = wild type E. coli NCM3722, growth: P-lim chemostat, doubling time 6 h
[12] = wild type E. coli NCM3722, growth: P-lim chemostat, doubling time 12 h

| Sequence | total protein half-life in vivo [1] [h] | total protein half-life in vivo [2] [h] | total protein half-life in vivo [3] [h] | total protein half-life in vivo [4] [h] | total protein half-life in vivo [5] [h] | total protein half-life in vivo [6] [h] | total protein half-life in vivo [7] [h] | total protein half-life in vivo [8] [h] | total protein half-life in vivo [9] [h] | total protein half-life in vivo [10] [h] | total protein half-life in vivo [11] [h] | total protein half-life in vivo [12] [h] |
| --- | --- | --- | --- | --- | --- | --- | --- | --- | --- | --- | --- | --- |
| MIRISDAAQAHFAKLLANQEEGTQIRVFVINPGTPNAECGVSYCPPDAVEATDTALKFDLLTAYVDELSAPYLEDAEIDFVTDQLGSQLTLKAPNAKMRKVADDAPLMERVEYMLQSQINPQLAGHGGRVSLMEITEDGYAILQFGGGCNGCSMVDVTLKEGIEKQLLNEFPELKGVRDLTEHQRGEHSYY | 4.529 ± 0.0069 | 3.82 ± 0.32 | 2.533 ± 0.019 | 2.97 ± 0.2 | 2.54 ± 0.25 | 2.32 ± 0.16 | 3.4 ± 0.13 | 5.07 ± 0.12 | 2.55 ± 0.36 | 3.63 ± 0.19 | 3.01 ± 0.56 | 6.09 ± 0.23 |
| MELATTQSVLMQIQPTIQRFARMLASVLQLEVEIVDENLCRVAGTGAYGKFLGRQLSGNSRLLRHVLETKTEKVVTQSRFDPLCEGCDSKENCREKAFLGTPVILQDRCVGVISLIAVTHEQQEHISDNLREFSDYVRHISTIFVSKLLEDQGPGDNISKIFATMIDNMDQGVLVVDDENRVQFVNQTALKTLGVVQNNIIGKPIRFRPLTFESNFTHGHMQHIVSWDDKSELIIGQLHNIQGRQLFLMAFHQSHTSFSVANAPDEPHIEQLVGECRVMRQLKRLISRIAPSPSSVMVVGESGTGKEVVARAIHKLSGRRNKPFIAINCAAIPEQLLESELFGYVKGAFTGASANGKTGLIQAANTGTLFLDEIGDMPLMLQAKLLRAIEAREILPIGASSPIQVDIRIISATNQNLAQFIAEGKFREDLFYRLNVIPITLPPLRERQEDIELLVHYFLHLHTRRLGSVYPGIAPDVVEILRKHRWPGNLRELSNLMEYLVNVVPSGEVIDSTLLPPNLLNNGTTEQSDVTEVSEAHLSLDDAGGTALEEMEKQMIREALSRHNSKKQVADELGIGIATLYRKIKKYELLNT | 4.91 ± 0.062 |  |  |  |  | 1.46 ± 0.072 | 2.41 ± 0.17 | 2.87 ± 0.29 |  | 1.52 |  | 2.56 |
| MQPNDITFFQRFQDDILAGRKTITIRDESESHFKTGDVLRVGRFEDDGYFCTIEVTATSTVTLDTLTEKHAEQENMTLTELKKVIADIYPGQTQFYVIEFKCL |  | 5.77 ± 0.22 | 5.77 ± 0.14 | 6.02 ± 0.22 | 6.22 ± 0.28 | 3.49 ± 0.34 | 5.2 ± 1.4 | 10.4 ± 3.3 | 6.12 ± 0.24 | 11.3 ± 0.97 | 6.47 ± 0.56 | 14 ± 0.55 |
| MADTHHAQGPGKSVLGIGQRIVSIMVEMVETRLRLAVVELEEEKANLFQLLLMLGLTMLFAAFGLMSLMVLIIWAVDPQYRLNAMIATTVVLLLLALIGGIWTLRKSRKSTLLRHTRHELANDRQLLEEESREQ | 6.43 ± 0.14 | 6.06 ± 0.94 | 7.19 ± 0.63 | 5.35 ± 1.2 | 6.49 ± 0.34 | 2.99 ± 0.26 | 5.36 ± 0.18 | 11 ± 0.91 | 6.27 ± 0.46 | 11.7 ± 3.4 | 4.39 ± 0.56 |  |
| MRYLNTKNIIAAGVLLSCMSSIAWGAIIPDRTRIIMNESDKGEALKLTNQSKNLPYLAQTWIEDTKGNKSRDFIVTVPPMVRLNPSEQIQIRMITQEKIAQLPKDRETLFYFNVREIPPKTDKKNVMQVTMQHALKLFWRPKAIELEDDGVMTYEKVEIIRRNDGSIRFNNKMPYHVTLGYIGTNGVTMLPQTQSLMVTPFSYANTQFKNVPSTFQVGYINDFGGLSFYEINCPVVNNICNISVANRDQ |  |  |  |  | 5.38 |  |  |  | 5.39 | 11.3 | 5.6 | 14.3 |
| MSKIFDFVKPGVITGDDVQKVFQVAKENNFALPAVNCVGTDSINAVLETAAKVKAPVIVQFSNGGASFIAGKGVKSDVPQGAAILGAISGAHHVHQMAEHYGVPVILHTDHCAKKLLPWIDGLLDAGEKHFAATGKPLFSSHMIDLSEESLQENIEICSKYLERMSKIGMTLEIELGCTGGEEDGVDNSHMDASALYTQPEDVDYAYTELSKISPRFTIAASFGNVHGVYKPGNVVLTPTILRDSQEYVSKKHNLPHNSLNFVFHGGSGSTAQEIKDSVSYGVVKMNIDTDTQWATWEGVLNYYKANEAYLQGQLGNPKGEDQPNKKYYDPRVWLRAGQTSMIARLEKAFQELNAIDVL [P0AB71] | 5.42 ± 0.2 | 5.14 ± 0.69 | 5.06 ± 0.15 | 5.07 ± 0.24 | 4.73 ± 0.32 | 3.19 ± 0.097 | 5.67 ± 0.37 | 9.46 ± 0.69 | 4.87 ± 0.47 | 8.4 ± 0.15 | 5.84 ± 0.2 | 12.19 ± 0.092 |
| MANYFIDRPVFAWVLAIIMMLAGGLAIMNLPVAQYPQIAPPTITVSATYPGADAQTVEDSVTQVIEQNMNGLDGLMYMSSTSDAAGNASITLTFETGTSPDIAQVQVQNKLQLAMPSLPEAVQQQGISVDKSSSNILMVAAFISDNGSLNQYDIADYVASNIKDPLSRTAGVGSVQLFGSEYAMRIWLDPQKLNKYNLVPSDVISQIKVQNNQISGGQLGGMPQAADQQLNASIIVQTRLQTPEEFGKILLKVQQDGSQVLLRDVARVELGAEDYSTVARYNGKPAAGIAIKLAAGANALDTSRAVKEELNRLSAYFPASLKTVYPYDTTPFIEISIQEVFKTLVEAIILVFLVMYLFLQNFRATIIPTIAVPVVILGTFAILSAVGFTINTLTMFGMVLAIGLLVDDAIVVVENVERVIAEDKLPPKEATHKSMGQIQRALVGIAVVLSAVFMPMAFMSGATGEIYRQFSITLISSMLLSVFVAMSLTPALCATILKAAPEGGHKPNALFARFNTLFEKSTQHYTDSTRSLLRCTGRYMVVYLLICAGMAVLFLRTPTSFLPEEDQGVFMTTAQLPSGATMVNTTKVLQQVTDYYLTKEKDNVQSVFTVGGFGFSGQGQNNGLAFISLKPWSERVGEENSVTAIIQRAMIALSSINKAVVFPFNLPAVAELGTASGFDMELLDNGNLGHEKLTQARNELLSLAAQSPNQVTGVRPNGLEDTPMFKVNVNAAKAEAMGVALSDINQTISTAFGSSYVNDFLNQGRVKKVYVQAGTPFRMLPDNINQWYVRNASGTMAPLSAYSSTEWTYGSPRLERYNGIPSMEILGEAAAGKSTGDAMKFMADLVAKLPAGVGYSWTGLSYQEALSSNQAPALYAISLVVVFLALAALYESWSIPFSVMLVVPLGVVGALLATDLRGLSNDVYFQVGLLTTIGLSAKNAILIVEFAVEMMQKEGKTPIEAIIEAARMRLRPILMTSLAFILGVLPLVISHGAGSGAQNAVGTGVMGGMFAATVLAIYFVPVFFVVVEHLFARFKKA | 6.822 ± 0.011 |  | 5.41 ± 0.53 | 5.03 ± 0.059 |  |  |  |  | 5.55 | 12.5 ± 3.7 | 5.7 ± 0.79 | 12.5 ± 1.6 |
